Biological target: Wild-type spindle pole bodies (SPBs) purified from budding yeast (strain BGY72-8A: Spc97-TAP, Spc42-mCherry) (budding yeast) (UniProt P38863)
Experiment: laser trap rupture force

Wild-type spindle pole bodies (SPBs) purified from budding yeast (strain BGY72-8A: Spc97-TAP, Spc42-mCherry) (budding yeast), sequence (P38863 whole entry, looked up): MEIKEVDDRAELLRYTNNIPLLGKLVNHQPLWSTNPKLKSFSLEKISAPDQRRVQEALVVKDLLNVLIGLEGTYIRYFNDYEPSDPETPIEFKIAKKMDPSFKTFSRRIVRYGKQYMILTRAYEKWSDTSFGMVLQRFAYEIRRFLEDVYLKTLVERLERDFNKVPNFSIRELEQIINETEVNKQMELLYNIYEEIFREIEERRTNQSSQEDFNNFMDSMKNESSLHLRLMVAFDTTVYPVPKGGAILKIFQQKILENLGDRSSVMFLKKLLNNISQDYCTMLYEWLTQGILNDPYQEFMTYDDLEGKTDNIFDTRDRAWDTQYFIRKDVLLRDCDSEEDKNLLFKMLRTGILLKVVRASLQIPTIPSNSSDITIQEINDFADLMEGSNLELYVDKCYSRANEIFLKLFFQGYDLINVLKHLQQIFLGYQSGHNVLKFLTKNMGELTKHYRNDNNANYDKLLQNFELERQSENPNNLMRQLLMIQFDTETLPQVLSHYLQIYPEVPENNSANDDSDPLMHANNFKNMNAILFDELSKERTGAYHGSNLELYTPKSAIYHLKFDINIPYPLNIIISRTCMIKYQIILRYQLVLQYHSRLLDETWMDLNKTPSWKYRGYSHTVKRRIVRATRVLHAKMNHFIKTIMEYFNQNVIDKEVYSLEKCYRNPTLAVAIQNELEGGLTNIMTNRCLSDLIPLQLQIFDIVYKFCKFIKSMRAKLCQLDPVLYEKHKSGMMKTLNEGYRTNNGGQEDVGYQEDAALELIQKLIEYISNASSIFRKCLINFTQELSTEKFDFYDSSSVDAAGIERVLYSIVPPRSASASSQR
Microtubules assembled from bovine brain tubulin, sequence (Q6B856 whole entry, looked up): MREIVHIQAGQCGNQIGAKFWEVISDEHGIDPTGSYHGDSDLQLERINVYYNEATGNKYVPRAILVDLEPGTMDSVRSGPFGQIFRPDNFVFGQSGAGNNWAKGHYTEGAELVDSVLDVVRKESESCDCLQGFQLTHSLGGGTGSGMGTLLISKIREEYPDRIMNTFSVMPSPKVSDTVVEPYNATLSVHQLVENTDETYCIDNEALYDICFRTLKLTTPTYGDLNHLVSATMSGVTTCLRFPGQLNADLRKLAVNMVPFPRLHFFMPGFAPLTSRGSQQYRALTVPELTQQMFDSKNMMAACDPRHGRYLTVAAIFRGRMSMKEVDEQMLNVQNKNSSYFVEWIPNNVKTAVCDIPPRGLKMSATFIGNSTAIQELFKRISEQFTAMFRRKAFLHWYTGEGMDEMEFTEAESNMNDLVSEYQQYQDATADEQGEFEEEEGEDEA

raw mean rupture force: 45 pN
Substance: Microtubules assembled from bovine brain tubulin (from UniProt Q6B856 1-445) (complex)
